This note sets out measurements from patent US20180057596A1 (AstraZeneca / MedImmune, published 2018).

The target in assay [1] is T1, human IL4Rα/Fc (R and D Systems 604-4R) (human, UniProt P24394 26-231, limits assumed, biotin labelled in the assay of Example 5).
T1 construct: bought protein; also called IL-4Rα/Fc (R&D systems Cat. No. 604-4R-050); not shown: Fc part of the bought fusion
T1 sequence (looked up): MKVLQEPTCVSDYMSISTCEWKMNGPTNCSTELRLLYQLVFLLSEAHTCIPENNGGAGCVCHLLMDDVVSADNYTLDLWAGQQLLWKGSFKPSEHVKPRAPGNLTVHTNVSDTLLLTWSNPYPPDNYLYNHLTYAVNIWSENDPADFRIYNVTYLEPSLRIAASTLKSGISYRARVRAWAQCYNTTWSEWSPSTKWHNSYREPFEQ
Put plainly: HTRF receptor-ligand assay, purified scFv against biotinylated human IL4.

In assay [2] the target is T2, cynomolgus IL4Rα/Fc HIS6 (HEK expressed) (cynomolgus monkey).
T2 construct: also called Cyno IL4R; cynomolgus IL-4Rα HIS Fc (in house HEK-EBNA derived); not shown: HIS6 tag
T2 sequence (chain, as listed by the source): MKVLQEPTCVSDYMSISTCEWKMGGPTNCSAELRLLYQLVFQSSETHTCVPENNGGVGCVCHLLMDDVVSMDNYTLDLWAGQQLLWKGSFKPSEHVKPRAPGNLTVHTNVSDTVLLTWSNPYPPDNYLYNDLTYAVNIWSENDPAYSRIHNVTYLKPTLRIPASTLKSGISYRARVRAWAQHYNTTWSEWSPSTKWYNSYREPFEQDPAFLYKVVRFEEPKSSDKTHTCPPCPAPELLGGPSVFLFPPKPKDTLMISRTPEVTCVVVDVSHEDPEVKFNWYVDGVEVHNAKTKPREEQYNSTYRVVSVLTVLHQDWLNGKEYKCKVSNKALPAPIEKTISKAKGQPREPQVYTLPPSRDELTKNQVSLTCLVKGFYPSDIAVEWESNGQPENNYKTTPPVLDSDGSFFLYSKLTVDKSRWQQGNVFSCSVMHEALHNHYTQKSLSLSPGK
Put plainly: HTRF receptor-ligand assay, purified scFv against biotinylated cynomolgus IL4.

B1: Antibody 13 scFv (scFv, V domains shown)
VH: QVQLVQSGAEVKKPGASVKVSCKASGYAFTSYYMHWARQAPGQGLEWMGIINPSGGSTSYAQKFQGRVTMTRDTSTSTVYMELSSLRSEDTAVYYCARGKWWLYDWGKGTLVTVSS
VL: QSVLTQPPSVSAAPGQKVTISCSGGSSNIGNSYVSWYQQLPGTAPKLLIYDNNKRPSGIPDRFSGSKSGTSATLAITGLQTGDEADYYCGTWDTSTTLQPLFGTGTKLTVL
notes: tested as purified scFv
Take B1: the Ki worked out at 0.3 nM in assay [1] and 22.2 nM in assay [2].

B2: Antibody 16 scFv (scFv, V domains shown)
VH: QVQLVQSGAEVKKPGASVKVSCKASGYAFTSYYMHWARQAPGQGLEWMGIINPSGGSTSYAQKFQGRVTMTRDTSTSTVYMELSSLRSEDTAVYYCARGKWWLYNWGKGTLVTVSS
VL: QSVLTQPPSVSAAPGQKVTISCSGGSSNIGNSYVSWYQQLPGTAPKLLIYDNNKRPSGIPDRFSGSKSGTSATLAITGLQTGDEADYYCGTWDTSTTYHPIFGTGTKLTVL
notes: tested as purified scFv
B2: the Ki in assay [1] came out at 0.4 nM; in assay [2] it was 8.7 nM.

B3: Antibody 22 scFv (scFv, V domains shown)
VH: QVQLVQSGAEVKKPGASVKVSCKASGYAFTSYYMHWARQAPGQGLEWMGIINPSGGSTSYAQKFQGRVTMTRDTSTSTVYMELSSLRSEDTAVYYCARGKYWMYDWGKGTLVTVSS
VL: QPVLTQPPSVSAAPGQKVTISCSGGSSNIGNSYVSWYQQLPGTAPKLLIYDNNKRPSGIPDRFSGSKSGTSATLAITGLQTGDEADYFCGTWDTSTVWEWPFGTGTKLTVL
notes: tested as purified scFv
As for B3, the figures for the Ki in assay [1] and in assay [2] were 0.3 nM and 2.6 nM, respectively.

B4: Antibody 26 scFv (scFv, V domains shown)
VH: QVQLVQSGAEVKKPGASVKVSCKASGYAFTSYYMHWARQAPGQGLEWMGIINPSGGSTSYAQKFQGRVTMTRDTSTSTVYMELSSLRSEDTAVYYCARGKYWMYDWGKGTLVTVSS
VL: QSVLTQPPSVSAAPGQKVTISCSGGSSNIGNSYVSWYQQLPGTAPKLLIYDNNKRPSGIPDRFSGSKSGTSATLAITGLQTGDEADYFCGTWDTSTVWEWPFGTGTKLTVL
notes: tested as purified scFv
Consider B4, for which the Ki in assay [1] came out at 0.1 nM; in assay [2], 1.2 nM.

B5: Antibody 25 scFv (scFv, V domains shown)
VH: QVQLVQSGAEVKKPGASVKVSCKASGYAFTSYYMHWARQAPGQGLEWMGIINPRGGSASYAQKFQGRVSMTRDTSTSTVYMELSSLRSEDTAVYYCARGKYWMYDWGKGTLVTVSS
VL: QSVLTQPPSVSAAPGQKVTISCSGGSSNIGNSYVSWYQQLPGTAPKLLIYDNNKRPSGIPDRFSGSKSGTTATLAITGLQTGDEADYYCGTWVTSTVWEWPFGTGTKLTVL
notes: tested as purified scFv
For the molecule B5, the values for the Ki in assay [1] and in assay [2] were 0.039 nM and 1.3 nM, respectively.

B6: Antibody 37 scFv (scFv, V domains shown)
VH: QVQLVQSGAEVKKPGASVKVSCKASGYAFTSYYMHWARQAPGQGLEWMGIINPRGGSTSYAQKFQGRVAMTRDTSTSTVYMELSSLRPEDTAVYYCARGKYWMYDWGKGTLVTVSS
VL: QSVLTQPPSVSAAPGQKVTISCSGGGSSIGNSYVSWYQQLPGTAPKLLIYDNNKRPSGVPDRFSGSKSGTSATLAITGLQTGDEADYYCGTWDTSPVWEWPFGTGTKLTVL
notes: tested as purified scFv
Take B6: the Ki was determined as 0.04 nM in assay [1] and 0.8 nM in assay [2].

B7: Antibody 28 scFv (scFv, V domains shown)
VH: QVQLVQSGAEVKKPGASVKVSCKASGYAFTSYYMHWARQAPGQGLEWMGIINPSGGSTSYAQKFQGRVTMTRDTSTSTVYMELSSLRSEDTAVYYCARGKYWMYDWGNGTLVTVSS
VL: LPVLTQPPSVSAAPGQKVTISCSGGSSSIGNSYVSWYQQLPGAAPKLLIYDNNKRPSGIPDRFSGFRSGTSATLAITGLQTGDEADYYCGTWDTSPVWEWPFGTGTKLTVL
notes: tested as purified scFv
As for B7, the Ki in assay [1] amounted to 0.094 nM; in assay [2], 1.8 nM.

B8: Antibody 33 scFv (scFv, V domains shown)
VH: QVQLVQSGAEEKKPGASVKVSCKASGYAFTSYYMHWARQAPGQGLEWMGIINPSGGSTSYAQKFQGRVTMTRDTSTSTVYMELSSLRSEDTAVYYCARGKYWMYDWGKGTLVTVSS
VL: QSALTQPPSVSAAPGQKVTISCSGGSSNIGNSYVSWYQQLPGTAPKLLIYDNNKRPSGIPDRFSGSKSGTSATLAITGLQTGDEADYFCGTWDTSTVWEWPFGTGTKLTVL
notes: tested as purified scFv
B8: the Ki turned out to be 0.092 nM in assay [1] and 1.4 nM in assay [2].

B9: Antibody 21 scFv (scFv, V domains shown)
VH: QVQLVQSGAEVKKPGASVKVSCKASGYAFTSYYMHWARQAPGQGLEWMGIINPSGGSASYAQKFQGRVTMTRDTSTSTVYMELSSLRSEDTAVYYCARGKYWMYDWGKGTLVTVSS
VL: QSVLTQPPSVSAAPGQKVTISCSGGSSNIGNSYVSWYQQLPGTAPKLLIYDNNKRPSGIPDRFSGSKSGTSATLAITGLQTGDEAVYFCGTWDTSTVWEWPFGTGTKLTVL
notes: tested as purified scFv
For B9, the Ki in assay [1] came out at 0.031 nM; in assay [2], 1 nM.

B10: Antibody 30 scFv (scFv, V domains shown)
VH: QVQLVQSGAEVKKPGASVKVSCKASGYAFTSYYMHWARQAPGQGLEWMGIINPSGGSTSYAQKFQGRVTMTRDTSTSTVYMELSSLRSEDTAVYYCARGKYWMYDWGKGTLVTVSS
VL: QSVLTQPPSVSAAPGQKVTISCSGGSSNIGNSYVSWYQRLPGAAPKLLIYDNNKRPSGIPDRFSGSKSGTSATLAITGLQTGDEADYYCGTWDTSTVWEWPFGTGTKLTVL
notes: tested as purified scFv
As to B10, the Ki was determined as 0.069 nM in assay [1] and 3.6 nM in assay [2].

B11: Antibody 24 scFv (scFv, V domains shown)
VH: QVQLVQSGAEVKKPGASVKVSCKASGYAFTSYYMHWARQAPGQGLEWMGIINPRGGSTSYAQKFQGRVTMTRDTSTSTVYMELSSLRSEDTAVYYCARGKYWMYDWGKGTLVTVSS
VL: QSVLTQPPSVSAAPGQKVTISCSGGSSNIGNSYVSWYQQLPGTAPKLLIYDNNKRPSGIPDRFSGSKSGTSATLAITGLQTGDEADYFCGTWDTSTVWEWPFGTGTKLTVL
notes: tested as purified scFv
As to B11, the Ki came to 0.049 nM in assay [1] and 0.8 nM in assay [2].

B12: Antibody 35 scFv (scFv, V domains shown)
VH: QVQLVQSGAEVKKPGASVKVSCKASGYAFTSYYMHWARQAPGQGLEWMGIINPSGGSTSYAQKFQGRVTMTRDTSTSTVYMELSSLRSEDTAVYYCARGKYWMYDWGKGTLVTVSS
VL: QSVLTQPPSVSAAPGQKVTISCSGGSSNIGNSYVSWYQQLPGTAPKLLIYDNNKRPSGIPDRFSGSKSGTSATLAITGLQTGDEADYYCGTWDTSPVWEWPFGTGTKLTVL
notes: tested as purified scFv
On to B12, for which the Ki was 0.071 nM in assay [1] and 2.6 nM in assay [2].

B13: Antibody 19 scFv (scFv, V domains shown)
VH: QVQLVQSGAEVKKPGASVKVSCKASGYAFTSYYMHWARQAPGQGLEWMGIINPSGGSTSYAQKFQGRVTMTRDTSTSTVYMELSSLRSEDTAVYYCARGKWWWQHWGKGTLVTVSS
VL: QSVLTQPPSVSAAPGQKVTISCSGGSSNIGNSYVSWYQQLPGTAPKLLIYDNNKRPSGIPDRFSGSKSGTSATLAITGLQTGDEADYYCGTWDTSTTYHPIFGTGTKLTVL
notes: tested as purified scFv
B13: the Ki in assay [1] was 0.8 nM; in assay [2], 18.5 nM.

B14: Antibody 27 scFv (scFv, V domains shown)
VH: QVQLVQSGAEVRKPGASVKVSCKASGYAFTSYYMHWARQAPGQGLEWMGIINPSGGSTSYAQKFQGRVTMTRDTSTSTVYMELSSLRPEDTAVYYCARGKYWMYDWGKGTQVTVSS
VL: QSVLTQPPLVSAAPGQKVTISCSGGSSNIGNSYVSWYQRLPGTAPKLLIYDNNKRPSGIPDRFSGSKSGTSATLAITGLQTGDEADYYCGTWDTSTVWEWPFGTGTKLTVL
notes: tested as purified scFv
Regarding B14, the Ki in assay [1] worked out at 0.063 nM; in assay [2], 2.8 nM.

B15: Antibody 23 scFv (scFv, V domains shown)
VH: QVQLVQSGAEVRKPGASVKVSCKASGYAFTSYYMHWARQAPGQGLEWMGIINPSGGSTSYAQKFQGRVTMTRDTSTSTVYMELSSLRSEDTAVYYCARGKYWMYDWGKGTLVTVSS
VL: QSVLTQPPSVSAAPGQKVTISCSGGSSNIGNNYVSWYQQLPGTAPKLLIYDNNKRPPGIPDRFSGSKSGTSATLAITGLQTGDEADYYCGTWDTSTVWEWPFGTGTKLTVL
notes: tested as purified scFv
Regarding B15, the Ki in assay [1] came out at 0.2 nM; in assay [2], 4.8 nM.

B16: Antibody 24PGL scFv (scFv, V domains shown)
VH: QVQLVQSGAEVKKPGASVKVSCKASGYAFTSYYMHWVRQAPGQGLEWMGIINPRGGSTSYAQKFQGRVTMTRDTSTSTVYMELSSLRSEDTAVYYCARGKYWMYDWGKGTLVTVSS
VL: QSVLTQPPSVSAAPGQKVTISCSGGSSNIGNSYVSWYQQLPGTAPKLLIYDNNKRPSGIPDRFSGSKSGTSATLGITGLQTGDEADYFCGTWDTSTVWEWPFGTGTKLTVL
notes: tested as purified scFv
For B16, the Ki turned out to be 0.065 nM in assay [1] and 0.7 nM in assay [2].

B17: Antibody 15 scFv (scFv, V domains shown)
VH: QVQLVQSGAEVKKPGASVKVSCKASGYAFTSYYMHWARQAPGQGLEWMGIINPSGGSTSYAQKFQGRVTMTRDTSTSTVYMELSSLRSEDTAVYYCARGKWWLYNWGKGTLVTVSS
VL: QSVLTQPPSVSAAPGQKVTISCSGGSSNIGNSYVSWYQQLPGTAPKLLIYDNNKRPSGIPDRFSGSKSGTSATLAITGLQTGDEADYYCGTWDTSTHRHPLFGTGTKLTVL
notes: tested as purified scFv
Consider B17, for which the Ki in assay [1] was 1 nM; in assay [2] it was 32.3 nM.

B18: Antibody 18 scFv (scFv, V domains shown)
VH: QVQLVQSGAEVKKPGASVKVSCKASGYAFTSYYMHWARQAPGQGLEWMGIINPSGGSTSYAQKFQGRVTMTRDTSTSTVYMELSSLRSEDTAVYYCARGKWWWQHWGKGTLVTVSS
VL: QSVLTQPPSVSAAPGQKVTISCSGGSSNIGNSYVSWYQQLPGTAPKLLIYDNNKRPSGIPDRFSGSKSGTSATLAITGLQTGDEADYYCGTWDTSTTPMPVFGTGTKLTVL
notes: tested as purified scFv
With B18, the Ki is 0.7 nM in assay [1] and 56.5 nM in assay [2].

B19: Antibody 31 scFv (scFv, V domains shown)
VH: QVQLVQSGAEVKKPGASVKVSCKASGYAFTSYYMHWARQAPGQGLEWMGIINPSGGSTSYAQKFQGRVTMTRDTSTSTVYMELSSLRSEDTAVYYCARGKYWMYDWGKGTLVTVSS
VL: QSVLTQPPSVSAAPGQKVTISCSGGSSSIGNSYVSWYQQLPGTAPKLLIYDNNKRPSGIPDRFSGSKSGTSATLAITGLQTGDEADYYCGTWATSPVWEWPFGTGTKLTVL
notes: tested as purified scFv
For B19, the Ki in assay [1] amounted to 0.044 nM; in assay [2], 2.2 nM.
